# Laboratory results taken from patent US20200040101A1 (ASKGENE PHARMA, published 2020).
# T1: Claudin-2
# T1 construct: expressed on transiently transfected HEK 293 cells; the sheet prints only the number after Claudin-1
# T1 sequence (P57739 whole entry, species assumed, looked up): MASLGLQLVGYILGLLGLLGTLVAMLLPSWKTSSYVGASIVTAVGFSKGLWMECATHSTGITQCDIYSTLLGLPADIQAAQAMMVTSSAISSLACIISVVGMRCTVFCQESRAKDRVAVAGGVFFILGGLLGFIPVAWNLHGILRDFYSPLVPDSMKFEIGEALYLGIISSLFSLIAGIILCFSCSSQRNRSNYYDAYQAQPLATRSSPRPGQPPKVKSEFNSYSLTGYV
# T2: Claudin-5
# T2 construct: expressed on transiently transfected HEK 293 cells; the sheet prints only the number after Claudin-1
# T2 sequence (O00501 whole entry, species assumed, looked up): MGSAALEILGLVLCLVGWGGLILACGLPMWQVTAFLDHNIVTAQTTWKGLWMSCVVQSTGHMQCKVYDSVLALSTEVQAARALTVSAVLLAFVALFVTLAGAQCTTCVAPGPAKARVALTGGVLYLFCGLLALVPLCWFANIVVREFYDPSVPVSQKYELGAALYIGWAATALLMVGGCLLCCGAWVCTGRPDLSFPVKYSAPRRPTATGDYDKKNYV
# T3: Claudin-10
# T3 construct: expressed on transiently transfected HEK 293 cells; the sheet prints only the number after Claudin-1
# T3 sequence (P78369 1-228, species assumed, looked up): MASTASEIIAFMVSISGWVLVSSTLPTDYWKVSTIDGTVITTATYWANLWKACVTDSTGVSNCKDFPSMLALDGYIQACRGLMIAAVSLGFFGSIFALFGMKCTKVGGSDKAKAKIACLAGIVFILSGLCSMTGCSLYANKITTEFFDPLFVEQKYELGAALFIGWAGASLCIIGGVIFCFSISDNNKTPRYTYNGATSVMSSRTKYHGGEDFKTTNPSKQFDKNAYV
# T4: Claudin-11
# T4 construct: expressed on transiently transfected HEK 293 cells; the sheet prints only the number after Claudin-1
# T4 sequence (O75508 whole entry, species assumed, looked up): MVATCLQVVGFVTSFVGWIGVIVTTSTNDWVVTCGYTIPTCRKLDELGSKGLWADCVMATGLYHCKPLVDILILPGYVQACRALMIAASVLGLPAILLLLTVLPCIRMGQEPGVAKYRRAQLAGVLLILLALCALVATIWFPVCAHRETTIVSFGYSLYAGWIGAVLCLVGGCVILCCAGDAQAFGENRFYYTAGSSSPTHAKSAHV
# T5: Claudin-16
# T5 construct: expressed on transiently transfected HEK 293 cells; the sheet prints only the number after Claudin-1
# T5 sequence (Q9Y5I7 1-235, species assumed, looked up): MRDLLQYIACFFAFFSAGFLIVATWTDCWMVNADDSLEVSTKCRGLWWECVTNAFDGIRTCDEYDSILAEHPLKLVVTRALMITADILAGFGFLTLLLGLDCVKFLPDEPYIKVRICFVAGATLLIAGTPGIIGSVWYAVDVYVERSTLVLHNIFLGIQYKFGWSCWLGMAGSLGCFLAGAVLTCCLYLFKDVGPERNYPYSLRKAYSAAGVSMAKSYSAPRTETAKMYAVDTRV
# T6: Claudin-17
# T6 construct: expressed on transiently transfected HEK 293 cells; the sheet prints only the number after Claudin-1
# T6 sequence (P56750 whole entry, species assumed, looked up): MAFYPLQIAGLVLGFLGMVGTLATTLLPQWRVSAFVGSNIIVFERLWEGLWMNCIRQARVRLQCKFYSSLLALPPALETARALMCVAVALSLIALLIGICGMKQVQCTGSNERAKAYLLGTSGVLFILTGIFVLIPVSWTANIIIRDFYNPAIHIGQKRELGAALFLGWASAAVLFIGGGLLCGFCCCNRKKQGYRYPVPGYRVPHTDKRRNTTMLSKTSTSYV
# T7: Claudin-19
# T7 construct: expressed on transiently transfected HEK 293 cells; the sheet prints only the number after Claudin-1
# T7 sequence (Q8N6F1 whole entry, species assumed, looked up): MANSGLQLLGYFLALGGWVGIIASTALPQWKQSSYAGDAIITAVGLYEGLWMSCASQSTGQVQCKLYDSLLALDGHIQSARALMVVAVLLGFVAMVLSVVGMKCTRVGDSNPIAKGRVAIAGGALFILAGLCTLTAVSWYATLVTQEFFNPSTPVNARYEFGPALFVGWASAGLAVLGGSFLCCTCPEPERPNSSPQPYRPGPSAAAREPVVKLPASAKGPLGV
# T8: Claudin-23
# T8 construct: expressed on transiently transfected HEK 293 cells; the sheet prints only the number after Claudin-1
# T8 sequence (Q96B33 1-292, species assumed, looked up): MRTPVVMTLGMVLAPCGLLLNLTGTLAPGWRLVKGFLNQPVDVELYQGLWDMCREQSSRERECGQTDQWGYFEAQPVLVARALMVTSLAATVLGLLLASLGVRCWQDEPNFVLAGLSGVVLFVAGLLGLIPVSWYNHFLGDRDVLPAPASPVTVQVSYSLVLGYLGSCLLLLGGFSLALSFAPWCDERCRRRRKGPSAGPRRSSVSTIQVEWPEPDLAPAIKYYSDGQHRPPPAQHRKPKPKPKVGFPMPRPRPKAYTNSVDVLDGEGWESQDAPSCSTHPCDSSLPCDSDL
# T9: CLDN 7 expressed on HEK 293 cells (UniProt O95471 1-211, limits assumed)
# T9 construct: whole, on cells
# T9 sequence (looked up): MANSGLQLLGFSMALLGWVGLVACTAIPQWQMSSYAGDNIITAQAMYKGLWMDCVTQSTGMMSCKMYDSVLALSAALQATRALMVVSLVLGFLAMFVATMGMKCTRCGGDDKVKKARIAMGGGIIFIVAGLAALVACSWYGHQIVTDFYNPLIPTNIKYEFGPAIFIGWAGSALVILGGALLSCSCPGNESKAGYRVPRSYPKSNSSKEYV
# Key:
# Claudin-1 = target: T10, Claudin-1; assay: FACS, transfected HEK 293 cells
# T10 construct: expressed on transiently transfected HEK 293 cells
# Claudin-2 = target: T1, Claudin-2; assay: FACS, transfected HEK 293 cells
# Claudin-3 = target: T11, Claudin-3; assay: FACS, transfected HEK 293 cells
# T11 construct: expressed on transiently transfected HEK 293 cells; the sheet prints only the number after Claudin-1
# Claudin-4 = target: T12, Claudin-4; assay: FACS, transfected HEK 293 cells
# T12 construct: expressed on transiently transfected HEK 293 cells; the sheet prints only the number after Claudin-1
# Claudin-5 = target: T2, Claudin-5; assay: FACS, transfected HEK 293 cells
# Claudin-8 = target: T13, Claudin-8; assay: FACS, transfected HEK 293 cells
# T13 construct: expressed on transiently transfected HEK 293 cells; the sheet prints only the number after Claudin-1
# Claudin-9 = target: T14, Claudin-9; assay: FACS, transfected HEK 293 cells
# T14 construct: expressed on transiently transfected HEK 293 cells; the sheet prints only the number after Claudin-1
# Claudin-10 = target: T3, Claudin-10; assay: FACS, transfected HEK 293 cells
# Claudin-11 = target: T4, Claudin-11; assay: FACS, transfected HEK 293 cells
# Claudin-12 = target: T15, Claudin-12; assay: FACS, transfected HEK 293 cells
# T15 construct: expressed on transiently transfected HEK 293 cells; the sheet prints only the number after Claudin-1
# Claudin-14 = target: T16, Claudin-14; assay: FACS, transfected HEK 293 cells
# T16 construct: expressed on transiently transfected HEK 293 cells; the sheet prints only the number after Claudin-1
# Claudin-16 = target: T5, Claudin-16; assay: FACS, transfected HEK 293 cells
# Claudin-17 = target: T6, Claudin-17; assay: FACS, transfected HEK 293 cells
# Claudin-19 = target: T7, Claudin-19; assay: FACS, transfected HEK 293 cells
# Claudin-22 = target: T17, Claudin-22; assay: FACS, transfected HEK 293 cells
# T17 construct: expressed on transiently transfected HEK 293 cells; the sheet prints only the number after Claudin-1
# Claudin-23 = target: T8, Claudin-23; assay: FACS, transfected HEK 293 cells
# Claudin-34 = target: T18, Claudin-34; assay: FACS, transfected HEK 293 cells
# T18 construct: expressed on transiently transfected HEK 293 cells; the sheet prints only the number after Claudin-1
# [1] = target: T9, CLDN 7 expressed on HEK 293 cells; assay: FACS, transfected HEK 293 cells
# [2] = target: T19, human Claudin 18.2 (CLDN18.2) expressed on cells (human, UniProt P56856-2 1-261); assay: FACS, HEK 293 cells expressing CLDN18.2
# T19 construct: whole, on cells; also called CLD18.2; CLD18A2
# [3] = target: T19, human Claudin 18.2 (CLDN18.2) expressed …; assay: FACS, transfected HEK 293 cells, first 18.2 column
# [4] = target: T19, human Claudin 18.2 (CLDN18.2) expressed …; assay: FACS, transfected HEK 293 cells, second 18.2 column
# [5] = target: T19, human Claudin 18.2 (CLDN18.2) expressed …; assay: FACS, hybridoma supernatant of the first fusion, AF 647 anti-IgG
MFI (Claudin-1),MFI (Claudin-2),MFI (Claudin-3),MFI (Claudin-4),MFI (Claudin-5),MFI (Claudin-8),MFI (Claudin-9),MFI (Claudin-10),MFI (Claudin-11),MFI (Claudin-12),MFI (Claudin-14),MFI (Claudin-16),MFI (Claudin-17),MFI (Claudin-19),MFI (Claudin-22),MFI (Claudin-23),MFI (Claudin-34),MFI [1],MFI [3],MFI [4],Binder,other results
23.6,22,23.3,21.8,21.2,20.8,21.7,22.3,20.3,21.6,22.4,21.8,21.9,21.3,22.2,21.7,24.1,23.4,3610,2810,"M5 (mutated version of M1) (antibody, V domains shown, Humanized mouse antibody from 11E12 (hu11E12VHv1B with hu11E12VLv1); also called ASK-M5_DS; Molecule M5) VH: QVQLVQSGAEVKKPGASVKVSCKASGYTFTSYVINWVRQATGQGLEWIGEIHPRGGNTYYSEKFRGRVTLTADTSISTAYMELSSLRSEDTAVYYCARLRRGNAMDYWDQGTTVTVSS VL: DIVMTQSPSSLAVSLGEMATINCKSSQSLLNSGNQRNYLTWYQQKPGQPPKLLIYWASTRESGVPDRFSGSGSGTDFTLTISSLQAEDVAVYYCQNSYNYPYTFGQGTKLERK",EC50 (read off the curve) [2]: ~0.3 µg/mL
23.4,22.3,21.4,20.7,20,20.4,20.5,23.2,19.4,21.9,20.1,21,21.7,20.5,21.1,19.3,20.7,21.5,4820,4650,"ASK589-M1 (antibody, V domains shown, Humanized mouse antibody from 11E12 (hu11E12VHv1 with hu11E12VLv1); also called Molecule M1; M1_DS) VH: QVQLVQSGAEVKKPGASVKVSCKASGYTFTSYVINWVRQATGQGLEWIGEIHPRGGNTYYSEKFRGRVTLTADTSISTAYMELSSLRSEDTAVYYCAILRRGNAMDYWDQGTTVTVSS VL: DIVMTQSPSSLAVSLGEMATINCKSSQSLLNSGNQRNYLTWYQQKPGQPPKLLIYWASTRESGVPDRFSGSGSGTDFTLTISSLQAEDVAVYYCQNSYNYPYTFGQGTKLERK",–
–,–,–,–,–,–,–,–,–,–,–,–,–,–,–,–,–,–,–,–,"30B5 (mouse hybridoma subclone antibody) (antibody, V domains shown, also remade as chimeric antibody with human IgG1 and kappa) VH: EVKLEESGGGLVQPGGSMKLSCVASGFTFSNYWMNWVRQSPEKGLEWVAEIRLKSKNYATHYAESVKGRFTISRDDSIGSVYLQMNNLRAEDTGIYYCARGHYGTNYGDYWGQGTSVTVSS VL: DIVMTQSPSSLTVTAGEKVTVSCKSSQSLFNSGNQKHYLTWYQQKPGQPPKLLIYRASTRESGVPDRFTGSGSGTDFTLTIRNVQAEDLAVYYCQNDYSFPLTFGAGTKLELK",binding result [5]: binds
